Earlier results on one substance are cited in article PMC4786785.

The target of this series is Nterm1 (UniProt position 2, ----MPIAQIH). To be noted: not stated (wild-type enzyme, described in the context of the natural tautomerase mechanism).

As to “4-oxalocrotonate tautomerase (4-OT) (Pseudomonas putida mt-2)”, the pKa entry was “≈6.4”.
